In publication PMC6914340:

How the values were obtained:
Experiment in all cases: flow cytometry on cells; on-yeast binding titration: single yeast colonies each displaying an IL-6 variant; biotinylated gp130 from 1 μM, eight concentrations in a 1/3 dilution series; apparent KD
[1] = biological target: IL-6 variant Mut1 displayed on yeast (human) (UniProt P05231)
[2] = biological target: IL-6 variant Mut3 displayed on yeast (human) (UniProt P05231)
[3] = biological target: IL-6 variant Mut7 displayed on yeast (human) (UniProt P05231)
IL-6 variant Mut7 displayed on yeast (human), sequence (P05231 30-212, change not shown): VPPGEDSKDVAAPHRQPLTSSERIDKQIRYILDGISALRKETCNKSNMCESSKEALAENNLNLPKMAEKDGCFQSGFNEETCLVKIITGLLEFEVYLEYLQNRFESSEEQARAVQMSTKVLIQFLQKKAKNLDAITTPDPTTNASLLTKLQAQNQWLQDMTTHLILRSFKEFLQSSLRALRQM

biotinylated gp130 ectodomain (SD1-SD3, amino acids 23–321), sequence (P40189 23-321): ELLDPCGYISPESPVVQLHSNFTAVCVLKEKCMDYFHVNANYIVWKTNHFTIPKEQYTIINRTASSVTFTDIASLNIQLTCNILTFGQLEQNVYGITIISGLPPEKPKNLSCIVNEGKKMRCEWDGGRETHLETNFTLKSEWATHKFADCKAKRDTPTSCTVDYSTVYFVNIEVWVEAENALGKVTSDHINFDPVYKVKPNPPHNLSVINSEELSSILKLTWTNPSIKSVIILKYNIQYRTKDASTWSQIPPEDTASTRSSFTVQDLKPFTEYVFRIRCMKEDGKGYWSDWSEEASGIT
IL-6 variant Mut3 displayed on yeast (human), sequence (P05231 30-212, change not shown): as the sequence (P05231 30-212, change not shown) above
IL-6 variant Mut1 displayed on yeast (human), sequence (P05231 30-212, change not shown): as above

- Kd [1]: 2 nM
- Kd [2]: 2 nM
- Kd [3]: 2 nM
Substance: biotinylated gp130 ectodomain (SD1-SD3, amino acids 23–321) (from UniProt P40189 23-321) (domain or fragment)
